Reference: US10407662B2, “Method of culturing pluripotent stem cell, and polypeptide to be used therefor” (FUJIFILM Corporation, priority 2012, dated 2019)

Legend:
Format in all cases: cell-based
human iPS cells [1] = experiment: Cell Adhesiveness Evaluation 2 (synthetic peptide inhibition of cell adhesion to natural vitronectin); conditions: 100 μM synthetic peptide
Experimental: Polypeptides listed in Table 7 were synthesized by Emoc solid phase synthesis. A surface to which natural vitronectin was adsorbed at a concentration of 130 pmol/m^2, and thereafter, a cell suspension to which 100 μM of the above-described synthetic peptide was added was seeded at a rate of 30,000 cells/well. The number of adherent cells after 24 h post seeding was calculated by the same technique as in <Cell Adhesiveness Evaluation 1>.

human iPS cells [2] = experiment: Proliferation Evaluation of iPS cells on polypeptide-coated plate; conditions: for The Number (%) of Cells after 3 Days: 5000 cells/well
Experimental: The iPS cells collected in the same manner as in <Cell Adhesiveness Evaluation 1>described above were seeded on a 96-well plate, to which RCP-1, RCP-11, and the natural human vitronectin were adsorbed, at a rate of 250 cells/well, and were cultured in a 5% CO2 incubator at 37° C. for 8 days. The number of adherent cells after each lapse of time was measured by the same method as in <Cell Adhesiveness Evaluation 1> described above, to obtain proliferation curves, The proliferation curves were indicated in FIG. 2. In FIG. 2, a black rhombus represents an example in which RCP-1 was used, while a black tetragon represents an example in which RCP-11 was used.
Similarly, each of samples from […] was prepared so as to have an addition concentration listed in Table 8 with each of from RCP-1 to RCP-10, and RCP-17, and Human Recombinant Laminin-511 as a reference, was seeded on a 96-well plate, to which each polypeptide was adsorbed, at a rate of 5000 cells/well in the same manner as in<Cell Adhesiveness Evaluation 1> described above, and was cultured in a CO2 incubator at 37° C. for 3 days. The number of cells after the 3 days was measured by the same method as in <Cell Adhesiveness Evaluation 1> described above.

human iPS cells [3] = experiment: Evaluation of Maintenance of Undifferentiation (colony form, NANOG staining); conditions: for form of iPS cell colonies: FIG. 3, TESR2, subculture every six days; for NANOG expression (immunostaining): FIG. 4; for NANOG expression (immunostaining) / maintenance of undifferentiated state: cultured for 1 month
Experimental: iPS cells collected in the same manner as in <Cell Adhesiveness Evaluation 1> described above were suspended in TESR2. Induced pluripotent stem cells (iPS cells) were seeded on a 6-well plate (Tissue Culture-Treated, Falcon) to which each of the sample 1, the sample 2, the sample 5, the sample 6, and the sample 7 used in <Cell Adhesiveness Evaluation 1> described above was adsorbed in the same manner as in <Cell Adhesiveness Evaluation 1>, and were cultured in a CO2 incubator at 37° C. The culture medium was replaced by a fresh culture medium every day except the next day after the seeding. Subculture was performed by the same method as mentioned above every six days.
The cells were cultured under these conditions for 1 month, thereafter immobilized with 4% paraformaldehyde, and made to have membrane permeability enhanced with 1% Triton-X/PBS. Blocking treatment was performed with an Image IT Signal Enhancer (Invitrogen), followed by adding an anti-human NANOG antibody (AF1997, R&D Systems, Inc), ALEXA FLUOR 555-CONJUGATE rabbit anti-goat IgG antibody (Invitrogen), and DAPI (Dojindo Laboratories), by performing labeling, and by photographing the cells with a fluorescence microscope.
In each of FIG. 3 and FIG. 4, “A”, “B”, “C” “D”, and “E” show iPS cells cultured on RCP-1, iPS cells cultured on RCP-11, iPS cells cultured on the natural human vitronectin, iPS cells cultured on rinaminin-5, and iPS cells cultured on rLaminin-511, respectively. Scale bar: 100 μm. In FIG. 3, overall colony images are shown in the left column, while magnified images are shown in the right column; and in FIG. 4, DAPI-stained images are shown in the left column while anti-NANOG antibody-stained images are shown in the right column. Scale bars in FIGS. 3 and 4: 200 μm.

Molecule: CCTDYTAECKPQVTRGDVFT [Peptide-5]
- inhibition of cell adhesion to natural vitronectin (in words) (human iPS cells [1]): significantly inhibited

Molecule: CCTDYTAECKPQVTRGEVFT [Peptide-7]
- inhibition of cell adhesion to natural vitronectin (in words) (human iPS cells [1]): adhesion inhibition did not occur

Molecule: DKKCQCDELCSYYQSCCTDY [Peptide-4]
- inhibition of cell adhesion to natural vitronectin (in words) (human iPS cells [1]): significantly inhibited

Molecule: DQESCKGRCTEGFNVDKKCQ [Peptide-1]
- inhibition of cell adhesion to natural vitronectin (in words) (human iPS cells [1]): adhesion inhibition did not occur

Molecule: EGFNVDKKCQCDELCSYYQS [Peptide-3]
- inhibition of cell adhesion to natural vitronectin (in words) (human iPS cells [1]): adhesion inhibition did not occur

Molecule: KGRCTEGFNVDKKCQCDELC [Peptide-2]
- inhibition of cell adhesion to natural vitronectin (in words) (human iPS cells [1]): adhesion inhibition did not occur

Molecule: Laminin-511: recombinant laminin (Human Recombinant Laminin-511: Biolamina)
- The Number (%) of Cells after 3 Days (human iPS cells [2]; addition amount 1.28 μg/cm^2): 56.8%

B1: RCP-11: comparative recombinant polypeptide, GPLG + positions 1-459; corresponds to the sequence of natural human vitronectin (protein)
chain: GPLGDQESCKGRCTEGFNVDKKCQCDELCSYYQSCCTDYTAECKPQVTRGDVFTMPEDEYTVYDDGEEKNNATVHEQVGGPSLTSDLQAQSKGNPEQTPVLKPEEEAPAPEVGASKPEGIDSRPETLHPGRPQPPAEEELCSGKPFDAFTDLKNGSLFAFRGQYCYELDEKAVRPGYPKLIRDVWGIEGPIDAAFTRINCQGKTYLFKGSQYWRFEDGVLDPDYPRNISDGFDGIPDNVDAALALPAHSYSGRERVYFFKGKQYWEYQFQHQPSQEECEGSSLSAVFEHFAMMQRDSWEDIFELLFWGRTSAGTRQPQFISRDWHGVPGQVDAAMAGRIYISGMAPRPSLAKKQRFRHRNRKGYRSQRGHSRGRNQNSRRPSRATWLSLFSSEESNLGANNYDDYRMDWLVPATCEPIQSVFFFSGDKYYRVNLRTRRVDTVDPPYPRSIAQYWLGCPAPGHL
modifications: Synthetic Peptide CRP-11
- number of cells smaller than that of RCP-1, as fraction of RCP-1 (human iPS cells [2]; culture day 8, FIG. 2): around ⅓
- form of iPS cell colonies (human iPS cells [3]): homogeneous colony and a form characteristic for undifferentiated cells having a high nucleus occupying rate
- NANOG expression (immunostaining) (human iPS cells [3]): strongly expressed NANOG in an overall colony
- maintenance of undifferentiated state (human iPS cells [3]): undifferentiated state was favorably maintained

B2: RCP-17: recombinant polypeptide, Met + SEQ ID NO:38; vitronectin positions 1-55, 269-277, 295-341, 342-373, C274S (printed as RCP-11 in Table 2) (protein)
chain: MDQESCKGRCTEGFNVDKKCQCDELCSYYQSCCTDYTAECKPQVTRGDVFTMPEDESQEESEGSEDIFELLFWGRTSAGTRQPQFISRDWHGVPGQVDAAMAGRIYISGMAPRPSLAKKQRFRHRNRKGYRSQRGHSRGRNQN
modifications: Synthetic Peptide RCP-17
- The Number (%) of Cells after 3 Days (human iPS cells [2]; addition amount 5 μg/cm^2): 153.5%

B3: Natural vitronectin: human vitronectin (extracted from human plasma, BD Biosciences) (protein, listed as Homo sapiens)
chain: DQESCKGRCTEGFNVDKKCQCDELCSYYQSCCTDYTAECKPQVTRGDVFTMPEDEYTVYDDGEEKNNATVHEQVGGPSLTSDLQAQSKGNPEQTPVLKPEEEAPAPEVGASKPEGIDSRPETLHPGRPQPPAEEELCSGKPFDAFTDLKNGSLFAFRGQYCYELDEKAVRPGYPKLIRDVWGIEGPIDAAFTRINCQGKTYLFKGSQYWRFEDGVLDPDYPRNISDGFDGIPDNVDAALALPAHSYSGRERVYFFKGKQYWEYQFQHQPSQEECEGSSLSAVFEHFAMMQRDSWEDIFELLFWGRTSAGTRQPQFISRDWHGVPGQVDAAMAGRIYISGMAPRPSLAKKQRFRHRNRKGYRSQRGHSRGRNQNSRRPSRATWLSLFSSEESNLGANNYDDYRMDWLVPATCEPIQSVFFFSGDKYYRVNLRTRRVDTVDPPYPRSIAQYWLGCPAPGHL
modifications: glycosylated, plasma-derived
- form of iPS cell colonies (human iPS cells [3]): homogeneous colony and a form characteristic for undifferentiated cells having a high nucleus occupying rate
- NANOG expression (immunostaining) (human iPS cells [3]): strongly expressed NANOG in an overall colony
- maintenance of undifferentiated state (human iPS cells [3]): undifferentiated state was favorably maintained

B4: RCP-6: recombinant polypeptide, Met + human vitronectin positions 1-55, 269-459, C274S (protein)
chain: MDQESCKGRCTEGFNVDKKCQCDELCSYYQSCCTDYTAECKPQVTRGDVFTMPEDESQEESEGSSLSAVFEHFAMMQRDSWEDIFELLFWGRTSAGTRQPQFISRDWHGVPGQVDAAMAGRIYISGMAPRPSLAKKQRFRHRNRKGYRSQRGHSRGRNQNSRRPSRATWLSLFSSEESNLGANNYDDYRMDWLVPATSEPIQSVFFFSGDKYYRVNLRTRRVDTVDPPYPRSIAQYWLGSPAPGHL
modifications: Synthetic Peptide RCP-6
notes: recombinant polypeptide, Met + human vitronectin positions 1-55, 269-459, C274S
- The Number (%) of Cells after 3 Days (human iPS cells [2]; addition amount 20 μg/cm^2): 70.5%

B5: RCP-5: recombinant polypeptide, Met + human vitronectin positions 1-55, 302-341, 342-373 (protein)
chain: MDQESCKGRCTEGFNVDKKCQCDELCSYYQSCCTDYTAECKPQVTRGDVFTMPEDEFWGRTSAGTRQPQFISRDWHGVPGQVDAAMAGRIYISGMAPRPSLAKKQRFRHRNRKGYRSQRGHSRGRNQN
modifications: Synthetic Peptide RCP-5
- The Number (%) of Cells after 3 Days (human iPS cells [2]; addition amount 10 μg/cm^2): 121.2%

B6: RCP-2: recombinant polypeptide, Met + human vitronectin positions 1-55, 342-373 (protein)
chain: MDQESCKGRCTEGFNVDKKCQCDELCSYYQSCCTDYTAECKPQVTRGDVFTMPEDEPRPSLAKKQRFRHRNRKGYRSQRGHSRGRNQN
modifications: Synthetic Peptide RCP-2
- The Number (%) of Cells after 3 Days (human iPS cells [2]; addition amount 20 μg/cm^2): 81.7%

B7: RCP-7: recombinant polypeptide, Met + human vitronectin positions 1-55, 269-373, C274S (protein)
chain: MDQESCKGRCTEGFNVDKKCQCDELCSYYQSCCTDYTAECKPQVTRGDVFTMPEDESQEESEGSSLSAVFEHFAMMQRDSWEDIFELLFWGRTSAGTRQPQFISRDWHGVPGQVDAAMAGRIYISGMAPRPSLAKKQRFRHRNRKGYRSQRGHSRGRNQN
modifications: Synthetic Peptide RCP-7
notes: recombinant polypeptide, Met + human vitronectin positions 1-55, 269-373, C274S
- The Number (%) of Cells after 3 Days (human iPS cells [2]; addition amount 5 μg/cm^2): 89.9%

B8: RCP-4: recombinant polypeptide, Met + human vitronectin positions 1-55, 312-341, 342-373 (protein)
chain: MDQESCKGRCTEGFNVDKKCQCDELCSYYQSCCTDYTAECKPQVTRGDVFTMPEDEQPQFISRDWHGVPGQVDAAMAGRIYISGMAPRPSLAKKQRFRHRNRKGYRSQRGHSRGRNQN
modifications: Synthetic Peptide RCP-4
- The Number (%) of Cells after 3 Days (human iPS cells [2]; addition amount 20 μg/cm^2): 120.7%

B9: RCP-3: recombinant polypeptide, Met + human vitronectin positions 1-55, 322-341, 342-373 (protein)
chain: MDQESCKGRCTEGFNVDKKCQCDELCSYYQSCCTDYTAECKPQVTRGDVFTMPEDEGVPGQVDAAMAGRIYISGMAPRPSLAKKQRFRHRNRKGYRSQRGHSRGRNQN
modifications: Synthetic Peptide RCP-3
- The Number (%) of Cells after 3 Days (human iPS cells [2]; addition amount 20 μg/cm^2): 109.7%

B10: RCP-8: recombinant polypeptide, Met + human vitronectin positions 1-55, 269-373, 374-379, C274S (protein)
chain: MDQESCKGRCTEGFNVDKKCQCDELCSYYQSCCTDYTAECKPQVTRGDVFTMPEDESQEESEGSSLSAVFEHFAMMQRDSWEDIFELLFWGRTSAGTRQPQFISRDWHGVPGQVDAAMAGRIYISGMAPRPSLAKKQRFRHRNRKGYRSQRGHSRGRNQNSRRPSR
modifications: Synthetic Peptide RCP-8
notes: recombinant polypeptide, Met + human vitronectin positions 1-55, 269-373, 374-379, C274S
- The Number (%) of Cells after 3 Days (human iPS cells [2]; addition amount 5 μg/cm^2): 171.0%
